Laboratory results as given in publication PMC6160384, “TDP-43 regulates cancer-associated microRNAs”.

B1: miR-423-3p (ssRNA)
RNA: AGCUCGGUCUGAGGCCCCUCAGU
B2: miR-500a-3p (ssRNA)
RNA: AUGCACCUGGGCAAGGAUUCUG
B3: miR-574-3p (ssRNA)
RNA: CACGCUCAUGCACACACCCACA

target: TDP-43 (His-TDP-43 wild type) (UniProt Q13148 1-414); assay: EMSA; EMSA: LightShift Chemiluminescent RNA EMSA Kit (Thermo), per manufacturer; buffer, salt, pH and temperature not stated; settings: protein: recombinant; tags: His tag; text says C-terminal (pEASY-E2); label: biotin
Sequence (Q13148 whole entry): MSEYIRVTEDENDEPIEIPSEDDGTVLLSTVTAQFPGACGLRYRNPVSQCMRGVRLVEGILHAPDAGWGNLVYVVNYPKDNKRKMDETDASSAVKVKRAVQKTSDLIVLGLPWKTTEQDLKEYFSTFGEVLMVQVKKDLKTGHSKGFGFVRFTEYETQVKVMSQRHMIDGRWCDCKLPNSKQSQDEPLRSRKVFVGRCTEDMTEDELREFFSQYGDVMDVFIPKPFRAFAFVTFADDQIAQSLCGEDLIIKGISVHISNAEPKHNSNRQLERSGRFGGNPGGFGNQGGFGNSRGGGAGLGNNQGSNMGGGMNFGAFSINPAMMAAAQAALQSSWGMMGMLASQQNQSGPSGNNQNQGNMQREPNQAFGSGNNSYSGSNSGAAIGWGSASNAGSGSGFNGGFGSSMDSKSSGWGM

Binder	binding result
B1	binds
B2	binds
B3	no binding
